Data published in patent US20120164137A1 (MORPHOTEK, published 2012).

Experiments:
[1] = target: T1, Recombinant human folate receptor alpha (FRA) (human, UniProt P15328 25-234); experiment: SPR, FRA on CM5 chip, parallel line analysis; reference standard = 100%
T1 construct: Immobilised on a CM5 chip by amine coupling; also called FR-alpha
Description: The surface was regenerated between cycles by flushing with 10 mM glycine pH 2.0.

[2] = target: T2, Human FRA on IGROV-1 human ovarian adenocarcinoma cells (human, UniProt P15328 25-234); experiment: cell-based or functional assay
[3] = target: T2, Human FRA on IGROV-1 human ovarian …; experiment: cell-based or functional assay; remark: listed apart in the source
[4] = target: T2, Human FRA on IGROV-1 human ovarian …; experiment: cell-based or functional assay; remark: listed apart in the source

T2 sequence (P15328 25-234 limits assumed): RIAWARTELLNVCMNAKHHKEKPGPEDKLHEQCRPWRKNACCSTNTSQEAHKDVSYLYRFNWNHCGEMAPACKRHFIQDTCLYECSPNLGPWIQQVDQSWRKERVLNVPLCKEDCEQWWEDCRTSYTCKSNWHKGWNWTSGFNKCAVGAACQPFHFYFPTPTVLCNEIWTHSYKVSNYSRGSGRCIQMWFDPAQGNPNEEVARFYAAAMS
T1 sequence (P15328 25-234 limits assumed): as above

B1: MORAb-003 anti-FRA antibody, lot NB859-24 (harvested 10 days after initiation of culture) (antibody, human IgG1, kappa, V domains shown)
VH: EVQLVESGGGVVQPGRSLRLSCSASGFTFSGYGLSWVRQAPGKGLEWVAMISSGGSYTYYADSVKGRFAISRDNAKNTLFLQMDSLRPEDTGVYFCARHGDDPAWFAYWGQGTPVTVSS
VL: DIQLTQSPSSLSASVGDRVTITCSVSSSISSNNLHWYQQKPGKAPKPWIYGTSNLASGVPSRFSGSGSGTDYTFTISSLQPEDIATYYCQQWSSYPYMYTFGQGTKVEIKR
modifications: N-linked neutral glycans at Asn299 in SEQ ID NO: 5
notes: also called Day 10 harvest
- Measured Potency (%) [1]: 33.8%
- Half-Maximal Internalization Constant [2]: 44.6 min
- Internalization IC50 [2]: 15 ng/mL
- IC50 (Hum-ZAP secondary immunotoxin killing of IGROV-1 cells) [3]: 15 ng·mL
- INTL % (0 Min) [4]: 0%
- INTL % (15 min) [4]: 1%
- INTL % (30 min) [4]: 18%
- INTL % (60 min) [4]: 40%
- INTL % (150 min) [4]: 58%

B2: MORAb-003 anti-FRA antibody, lot NB810-13 (high osmolarity; harvested 14 days after initiation of culture) (antibody, human IgG1, kappa, V domains shown)
VH: EVQLVESGGGVVQPGRSLRLSCSASGFTFSGYGLSWVRQAPGKGLEWVAMISSGGSYTYYADSVKGRFAISRDNAKNTLFLQMDSLRPEDTGVYFCARHGDDPAWFAYWGQGTPVTVSS
VL: DIQLTQSPSSLSASVGDRVTITCSVSSSISSNNLHWYQQKPGKAPKPWIYGTSNLASGVPSRFSGSGSGTDYTFTISSLQPEDIATYYCQQWSSYPYMYTFGQGTKVEIKR
modifications: N-linked neutral glycans at Asn299 in SEQ ID NO: 5
- Measured Potency (%) [1]: 72.6%
- Half-Maximal Internalization Constant [2]: 49.6 min
- Internalization IC50 [2]: 990 ng/mL
- IC50 (Hum-ZAP secondary immunotoxin killing of IGROV-1 cells) [3]: 990 ng·mL
- INTL % (0 Min) [4]: 0%
- INTL % (30 min) [4]: 17%
- INTL % (60 min) [4]: 40%
- INTL % (150 min) [4]: 62%

B3: MORAb-003 anti-FRA antibody, lot NB810-10 (positive control; harvested 14 days after initiation of culture) (antibody, human IgG1, kappa, V domains shown)
VH: EVQLVESGGGVVQPGRSLRLSCSASGFTFSGYGLSWVRQAPGKGLEWVAMISSGGSYTYYADSVKGRFAISRDNAKNTLFLQMDSLRPEDTGVYFCARHGDDPAWFAYWGQGTPVTVSS
VL: DIQLTQSPSSLSASVGDRVTITCSVSSSISSNNLHWYQQKPGKAPKPWIYGTSNLASGVPSRFSGSGSGTDYTFTISSLQPEDIATYYCQQWSSYPYMYTFGQGTKVEIKR
modifications: N-linked neutral glycans at Asn299 in SEQ ID NO: 5
notes: also called Pos. ctl; positive control (round 1)
- Measured Potency (%) [1]: 85.5%
- Half-Maximal Internalization Constant [2]: 58.4 min
- Internalization IC50 [2]: 1630 ng/mL
- IC50 (Hum-ZAP secondary immunotoxin killing of IGROV-1 cells) [3]: 1630 ng·mL
- INTL % (0 Min) [4]: 0%
- INTL % (15 min) [4]: 4%
- INTL % (30 min) [4]: 9%
- INTL % (60 min) [4]: 32%
- INTL % (150 min) [4]: 56%

B4: MORAb-003 anti-FRA antibody, lot NB810-11 (galactose supplement; harvested 14 days after initiation of culture) (antibody, human IgG1, kappa, V domains shown)
VH: EVQLVESGGGVVQPGRSLRLSCSASGFTFSGYGLSWVRQAPGKGLEWVAMISSGGSYTYYADSVKGRFAISRDNAKNTLFLQMDSLRPEDTGVYFCARHGDDPAWFAYWGQGTPVTVSS
VL: DIQLTQSPSSLSASVGDRVTITCSVSSSISSNNLHWYQQKPGKAPKPWIYGTSNLASGVPSRFSGSGSGTDYTFTISSLQPEDIATYYCQQWSSYPYMYTFGQGTKVEIKR
modifications: N-linked neutral glycans at Asn299 in SEQ ID NO: 5
- Measured Potency (%) [1]: 84.7%
- Half-Maximal Internalization Constant [2]: 56.6 min
- Internalization IC50 [2]: 19 ng/mL
- IC50 (Hum-ZAP secondary immunotoxin killing of IGROV-1 cells) [3]: 19 ng·mL
- INTL % (0 Min) [4]: 0%
- INTL % (15 min) [4]: 3%
- INTL % (30 min) [4]: 6%
- INTL % (60 min) [4]: 29%
- INTL % (150 min) [4]: 50%

B5: MORAb-003 anti-FRA antibody, lot NB810-12 (low temperature; harvested 14 days after initiation of culture) (antibody, human IgG1, kappa, V domains shown)
VH: EVQLVESGGGVVQPGRSLRLSCSASGFTFSGYGLSWVRQAPGKGLEWVAMISSGGSYTYYADSVKGRFAISRDNAKNTLFLQMDSLRPEDTGVYFCARHGDDPAWFAYWGQGTPVTVSS
VL: DIQLTQSPSSLSASVGDRVTITCSVSSSISSNNLHWYQQKPGKAPKPWIYGTSNLASGVPSRFSGSGSGTDYTFTISSLQPEDIATYYCQQWSSYPYMYTFGQGTKVEIKR
modifications: N-linked neutral glycans at Asn299 in SEQ ID NO: 5
- Measured Potency (%) [1]: 87.3%
- Half-Maximal Internalization Constant [2]: 41.2 min
- Internalization IC50 [2]: 25 ng/mL
- IC50 (Hum-ZAP secondary immunotoxin killing of IGROV-1 cells) [3]: 25 ng·mL
- INTL % (0 Min) [4]: 0%
- INTL % (15 min) [4]: 3%
- INTL % (30 min) [4]: 21%
- INTL % (60 min) [4]: 39%
- INTL % (150 min) [4]: 55%

B6: MORAb-003 anti-FRA antibody, lot NB809-65 (positive control; harvested 13 days after initiation of culture) (antibody, human IgG1, kappa, V domains shown)
VH: EVQLVESGGGVVQPGRSLRLSCSASGFTFSGYGLSWVRQAPGKGLEWVAMISSGGSYTYYADSVKGRFAISRDNAKNTLFLQMDSLRPEDTGVYFCARHGDDPAWFAYWGQGTPVTVSS
VL: DIQLTQSPSSLSASVGDRVTITCSVSSSISSNNLHWYQQKPGKAPKPWIYGTSNLASGVPSRFSGSGSGTDYTFTISSLQPEDIATYYCQQWSSYPYMYTFGQGTKVEIKR
modifications: N-linked neutral glycans at Asn299 in SEQ ID NO: 5
notes: also called Pos. ctl; positive control (round 2)
- Measured Potency (%) [1]: 49.7%
- Half-Maximal Internalization Constant [2]: 51.7 min
- Internalization IC50 [2]: 14 ng/mL
- IC50 (Hum-ZAP secondary immunotoxin killing of IGROV-1 cells) [3]: 14 ng·mL
- INTL % (0 Min) [4]: 0%
- INTL % (15 min) [4]: 3%
- INTL % (30 min) [4]: 13%
- INTL % (60 min) [4]: 33%
- INTL % (150 min) [4]: 52%

B7: MORAb-003 anti-FRA antibody, lot NB809-66 (0.5 mM Na butyrate; harvested 13 days after initiation of culture) (antibody, human IgG1, kappa, V domains shown)
VH: EVQLVESGGGVVQPGRSLRLSCSASGFTFSGYGLSWVRQAPGKGLEWVAMISSGGSYTYYADSVKGRFAISRDNAKNTLFLQMDSLRPEDTGVYFCARHGDDPAWFAYWGQGTPVTVSS
VL: DIQLTQSPSSLSASVGDRVTITCSVSSSISSNNLHWYQQKPGKAPKPWIYGTSNLASGVPSRFSGSGSGTDYTFTISSLQPEDIATYYCQQWSSYPYMYTFGQGTKVEIKR
modifications: N-linked neutral glycans at Asn299 in SEQ ID NO: 5
- Measured Potency (%) [1]: 61.5%
- Half-Maximal Internalization Constant [2]: 53.5 min
- Internalization IC50 [2]: 15 ng/mL
- IC50 (Hum-ZAP secondary immunotoxin killing of IGROV-1 cells) [3]: 15 ng·mL
- INTL % (0 Min) [4]: 0%
- INTL % (15 min) [4]: 3%
- INTL % (30 min) [4]: 8%
- INTL % (60 min) [4]: 31%
- INTL % (150 min) [4]: 50%
